Assay results as given in US20150065381A1.
Where “and” joins values, the source holds several entries; their conditions need not be identical. Equal values may be shown once.

How the values were obtained:
[1] = molecular target: HIV-1 16055 envelope (HIV-1); test: capture ELISA, plate 1, mAb 0.8 ug/ml
[2] = molecular target: HIV-1 envelope clone BF-002.c08 (multiclade gp160 clone panel) (HIV-1); test: capture ELISA, plate 1, mAb 0.8 ug/ml
[3] = molecular target: HIV-1 JRCSF envelope (HIV-1) (UniProt P20871); test: capture ELISA, plate 1, mAb 0.8 ug/ml
[4] = molecular target: HIV-1 envelope clone BF-002.c05 (multiclade gp160 clone panel) (HIV-1); test: capture ELISA, plate 1, mAb 0.8 ug/ml
[5] = molecular target: HIV-1 envelope of gp160 clone B-Acute-009-c08 (HIV-1); test: capture ELISA, plate 1, mAb 0.8 ug/ml
[6] = molecular target: HIV-1 envelope of gp160 clone B-Acute-010.c08 (HIV-1); test: capture ELISA, plate 1, mAb 0.8 ug/ml
[7] = molecular target: HIV-1 JRFL envelope (HIV-1); test: capture ELISA, plate 1, mAb 0.8 ug/ml
[8] = molecular target: HIV-1 envelope clone F1-002.c16 (multiclade gp160 clone panel) (HIV-1); test: capture ELISA, plate 1, mAb 0.8 ug/ml
[9] = molecular target: HIV-1 envelope clone G-011.c05 (multiclade gp160 clone panel) (HIV-1); test: capture ELISA, plate 1, mAb 0.8 ug/ml
[10] = molecular target: HIV-1 envelope of gp160 clone B-Chronic-014.c02 (HIV-1); test: capture ELISA, plate 1, mAb 0.8 ug/ml
[11] = molecular target: HIV-1 envelope of gp160 clone B-Acute-010.c09 (HIV-1); test: capture ELISA, plate 1, mAb 0.8 ug/ml
[12] = molecular target: HIV-1 envelope of gp160 clone AG-010.c14 (HIV-1); test: capture ELISA, plate 1, mAb 0.8 ug/ml
[13] = molecular target: HIV-1 envelope clone F1-002.c11 (multiclade gp160 clone panel) (HIV-1); test: capture ELISA, plate 1, mAb 0.8 ug/ml
[14] = molecular target: HIV-1 envelope of gp160 clone AG-010.c11 (HIV-1); test: capture ELISA, plate 1, mAb 0.8 ug/ml
[15] = molecular target: HIV-1 envelope clone G-011.c02 (multiclade gp160 clone panel) (HIV-1); test: capture ELISA, plate 1, mAb 0.8 ug/ml
[16] = molecular target: HIV-1 envelope of gp160 clone B-Acute-008.c11 (HIV-1); test: capture ELISA, plate 1, mAb 0.8 ug/ml
[17] = molecular target: BG505 envelope (gp120 monomer released from lysed pseudovirus) (HIV-1); test: antigen capture ELISA, mAb 2.5 ug/ml, plate 2
[18] = molecular target: aMLV envelope (from lysed pseudovirus); test: antigen capture ELISA, mAb 2.5 ug/ml, plate 2
[19] = molecular target: HIV-1 envelope of gp160 clone B-Acute-010.c08 (HIV-1); test: capture ELISA, original data
[20] = molecular target: HIV-1 envelope clone G-011.c05 (multiclade gp160 clone panel) (HIV-1); test: capture ELISA, original data
[21] = molecular target: HIV-1 envelope of gp160 clone B-Chronic-014.c02 (HIV-1); test: capture ELISA, original data
[22] = molecular target: HIV-1 envelope of gp160 clone B-Acute-010.c09 (HIV-1); test: capture ELISA, original data
[23] = molecular target: HIV-1 envelope of gp160 clone AG-010.c14 (HIV-1); test: capture ELISA, original data
[24] = molecular target: HIV-1 envelope of gp160 clone AG-010.c11 (HIV-1); test: capture ELISA, original data
[25] = molecular target: HIV-1 envelope clone G-011.c02 (multiclade gp160 clone panel) (HIV-1); test: capture ELISA, original data
[26] = molecular target: HIV-1 envelope of gp160 clone B-Acute-008.c11 (HIV-1); test: capture ELISA, original data
[27] = molecular target: HIV-1 16055 envelope (HIV-1); test: capture ELISA, plate 1, mAb 2.5 ug/ml
[28] = molecular target: HIV-1 envelope clone BF-002.c08 (multiclade gp160 clone panel) (HIV-1); test: capture ELISA, plate 1, mAb 2.5 ug/ml
[29] = molecular target: HIV-1 JRCSF envelope (HIV-1) (UniProt P20871); test: capture ELISA, plate 1, mAb 2.5 ug/ml
[30] = molecular target: HIV-1 envelope of gp160 clone B-Acute-009-c08 (HIV-1); test: capture ELISA, plate 1, mAb 2.5 ug/ml
[31] = molecular target: HIV-1 envelope of gp160 clone B-Acute-010.c08 (HIV-1); test: capture ELISA, plate 1, mAb 2.5 ug/ml
[32] = molecular target: HIV-1 envelope clone F1-002.c16 (multiclade gp160 clone panel) (HIV-1); test: capture ELISA, plate 1, mAb 2.5 ug/ml
[33] = molecular target: HIV-1 envelope of gp160 clone B-Chronic-014.c02 (HIV-1); test: capture ELISA, plate 1, mAb 2.5 ug/ml
[34] = molecular target: HIV-1 envelope of gp160 clone B-Acute-010.c09 (HIV-1); test: capture ELISA, plate 1, mAb 2.5 ug/ml
[35] = molecular target: HIV-1 envelope of gp160 clone AG-010.c14 (HIV-1); test: capture ELISA, plate 1, mAb 2.5 ug/ml
[36] = molecular target: HIV-1 envelope clone F1-002.c11 (multiclade gp160 clone panel) (HIV-1); test: capture ELISA, plate 1, mAb 2.5 ug/ml
[37] = molecular target: HIV-1 envelope of gp160 clone AG-010.c11 (HIV-1); test: capture ELISA, plate 1, mAb 2.5 ug/ml
[38] = molecular target: HIV-1 envelope clone G-011.c02 (multiclade gp160 clone panel) (HIV-1); test: capture ELISA, plate 1, mAb 2.5 ug/ml

| Substance | ELISA OD [3] | ELISA OD [5] | ELISA OD [6] | ELISA OD [9] | ELISA OD [10] | ELISA OD [11] | ELISA OD [12] | ELISA OD [14] | ELISA OD [15] | ELISA OD [16] | ELISA OD [17] | ELISA OD [18] | ELISA OD [29] | ELISA OD [30] | ELISA OD [31] | ELISA OD [33] | ELISA OD [34] | ELISA OD [35] | ELISA OD [37] | ELISA OD [38] | further results |
| --- | --- | --- | --- | --- | --- | --- | --- | --- | --- | --- | --- | --- | --- | --- | --- | --- | --- | --- | --- | --- | --- |
| PGT151 (antibody) | 0.058 OD and 0.056 OD | 0.066 OD | 0.124 OD | 0.071 OD | 0.148 OD | 0.055 OD | 0.102 OD | 0.057 OD | 0.061 OD | 0.174 OD | 0.063 OD | 0.075 OD and 0.104 OD | 0.087 OD and 0.063 OD | 0.076 OD | 0.243 OD | 0.206 OD | 0.06 OD | 0.164 OD | 0.062 OD | 0.067 OD | ELISA OD [1]: 0.056 OD and 0.061 OD; ELISA OD [2]: 0.05 OD; ELISA OD [4]: 0.117 OD; ELISA OD [7]: 0.066 OD and 0.05 OD; ELISA OD [8]: 0.068 OD; ELISA OD [13]: 0.065 OD; ELISA OD [19]: 0.211 OD; ELISA OD (original data) [20]: 0.145 OD; ELISA OD [21]: 0.247 OD; ELISA OD [22]: 0.092 OD; ELISA OD [23]: 0.522 OD; ELISA OD [24]: 0.119 OD; ELISA OD (original data) [25]: 0.086 OD; ELISA OD [26]: 0.321 OD; ELISA OD [27]: 0.091 OD and 0.061 OD; ELISA OD [28]: 0.062 OD; ELISA OD [32]: 0.081 OD; ELISA OD [36]: 0.063 OD |
| PGV04 (antibody) | 0.896 OD and 1.04 OD | 0.079 OD | 0.631 OD | 0.136 OD | 2.9 OD | 0.902 OD | 0.15 OD | 0.101 OD | 0.282 OD | 0.053 OD | 1.04 OD | 0.085 OD and 0.089 OD | 1.53 OD and 1.78 OD | 0.123 OD | 1.34 OD | 4 OD | 1.73 OD | 0.241 OD | 0.136 OD | 0.601 OD | ELISA OD [2]: 1.27 OD; ELISA OD [4]: 1.91 OD; ELISA OD [8]: 0.118 OD; ELISA OD [13]: 0.079 OD; ELISA OD [28]: 2.2 OD; ELISA OD [32]: 0.242 OD; ELISA OD [36]: 0.145 OD |
| PGT145 (antibody) | 0.058 OD and 0.056 OD | 0.062 OD | 0.114 OD | 0.08 OD | 0.083 OD | 0.06 OD | 0.054 OD | 0.054 OD | 0.062 OD | 0.078 OD | 0.077 OD | 0.07 OD and 0.066 OD | 0.071 OD and 0.061 OD | 0.078 OD | 0.277 OD | 0.064 OD | 0.068 OD | 0.065 OD | 0.06 OD | 0.068 OD | ELISA OD [1]: 0.065 OD and 0.059 OD; ELISA OD [2]: 0.054 OD; ELISA OD [4]: 0.169 OD; ELISA OD [7]: 0.057 OD and 0.051 OD; ELISA OD [8]: 0.269 OD; ELISA OD [13]: 0.067 OD; ELISA OD [19]: 0.211 OD; ELISA OD (original data) [20]: 0.301 OD; ELISA OD [21]: 0.077 OD; ELISA OD [22]: 0.075 OD; ELISA OD [23]: 0.081 OD; ELISA OD [24]: 0.101 OD; ELISA OD (original data) [25]: 0.077 OD; ELISA OD [26]: 0.178 OD; ELISA OD [27]: 0.115 OD and 0.06 OD; ELISA OD [28]: 0.066 OD; ELISA OD [32]: 0.316 OD; ELISA OD [36]: 0.089 OD |
| PG16 (antibody) | 0.169 OD and 0.154 OD | 0.058 OD | 0.132 OD | 0.099 OD | 0.365 OD | 0.073 OD | 0.491 OD | 0.177 OD | 0.057 OD | 0.164 OD | 0.103 OD | 0.067 OD and 0.069 OD | 0.206 OD and 0.164 OD | 0.074 OD | 0.186 OD | 0.398 OD | 0.124 OD | 0.485 OD | 0.216 OD | 0.065 OD | ELISA OD [2]: 0.134 OD; ELISA OD [4]: 0.518 OD; ELISA OD [8]: 0.341 OD; ELISA OD [13]: 0.146 OD; ELISA OD [27]: 0.185 OD and 0.131 OD; ELISA OD [28]: 0.146 OD; ELISA OD [32]: 0.129 OD; ELISA OD [36]: 0.142 OD |
| PG9 (antibody) | 0.24 OD and 0.235 OD | 0.076 OD | 0.161 OD | 0.172 OD | 1.22 OD | 0.08 OD | 0.67 OD | 0.506 OD | 0.064 OD | 0.168 OD | 0.346 OD | 0.059 OD and 0.053 OD | 0.356 OD and 0.338 OD | 0.095 OD | 0.313 OD | 1.79 OD | 0.133 OD | 0.988 OD | 0.759 OD | 0.068 OD | ELISA OD [1]: 0.313 OD and 0.242 OD; ELISA OD [7]: 0.064 OD and 0.096 OD; ELISA OD [19]: 0.547 OD; ELISA OD (original data) [20]: 1.25 OD; ELISA OD [21]: 2.42 OD; ELISA OD [22]: 0.685 OD; ELISA OD [23]: 3.69 OD; ELISA OD [24]: 1.06 OD; ELISA OD (original data) [25]: 0.068 OD; ELISA OD [26]: 0.75 OD; ELISA OD [27]: 0.364 OD and 0.308 OD |
